In patent US20210269521A1 (L AND L BIOPHARMA, published 2021) one finds EC50 data, which are given here for one molecule.

Assay [1] has as its target T1, human TIM-3 extracellular domain-human IgG1 Fc fusion protein (human, UniProt Q8TDQ0 22-199).
T1 construct: Made in house or bought (ACROBiosystems TM3-H5258); also called TIM-3-hFc; not shown: human IgG1 Fc
The experiment in a line: ELISA; pH 5.5, 37°C 7 days. (In general: In an ELISA, binding on a coated surface is turned into a signal by an enzyme label.)

Assay [2] deals with T2, human PD-1 extracellular domain protein expressed in Example 1 (tag not stated) (human, UniProt Q15116 25-170).
T2 construct: extracellular domain; also called PD-1 protein; not shown: human IgG1 Fc or his tag
The experiment in a line: ELISA; pH 5.5, 37°C 7 days.

Assay [3] concerns the target T1, human TIM-3 extracellular domain-human …. The experiment in a line: ELISA; pH 5.5, 37°C 5 days.
In assay [4] the target is T2, human PD-1 extracellular domain protein …. The experiment in a line: ELISA; pH 5.5, 37°C 5 days.

B1: bispecific antibody LB141 (bispecific antibody, human IgG4 S228P, kappa)
light: EIVLTQSPATLSLSPGERATLSCRASKGVSTSGYSYLHWYQQKPGQAPRLLIYLASYLESGVPARFSGSGSGTDFTLTISSLEPEDFAVYYCQHSRDLPLTFGGGTKVEIKRTVAAPSVFIFPPSDEQLKSGTASVVCLLNNFYPREAKVQWKVDNALQSGNSQESVTEQDSKDSTYSLSSTLTLSKADYEKHKVYACEVTHQGLSSPVTKSFNRGEC
heavy: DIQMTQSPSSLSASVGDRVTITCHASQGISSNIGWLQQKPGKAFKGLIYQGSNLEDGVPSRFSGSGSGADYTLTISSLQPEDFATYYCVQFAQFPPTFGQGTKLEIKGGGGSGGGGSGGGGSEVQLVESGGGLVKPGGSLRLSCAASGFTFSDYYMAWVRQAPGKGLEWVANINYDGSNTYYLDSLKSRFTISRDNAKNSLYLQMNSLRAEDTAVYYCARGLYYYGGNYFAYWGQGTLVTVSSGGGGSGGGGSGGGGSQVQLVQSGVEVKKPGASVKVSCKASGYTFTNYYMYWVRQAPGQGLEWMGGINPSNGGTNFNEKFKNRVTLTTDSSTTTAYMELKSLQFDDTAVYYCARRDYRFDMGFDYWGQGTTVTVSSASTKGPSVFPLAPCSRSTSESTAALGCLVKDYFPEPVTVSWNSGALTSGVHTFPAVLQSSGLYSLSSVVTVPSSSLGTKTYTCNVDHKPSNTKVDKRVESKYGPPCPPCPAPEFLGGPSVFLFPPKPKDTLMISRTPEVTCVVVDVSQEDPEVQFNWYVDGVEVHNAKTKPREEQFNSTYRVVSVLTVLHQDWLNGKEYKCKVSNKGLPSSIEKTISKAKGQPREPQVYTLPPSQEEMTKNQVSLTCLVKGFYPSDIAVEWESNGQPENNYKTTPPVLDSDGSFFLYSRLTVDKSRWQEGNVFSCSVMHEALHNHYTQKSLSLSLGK
notes: ab6VL-(G4S)3-ab6VH-(G4S)3-PemVH-hIgG4 with PemVL-κ
In general, EC50 refers to the concentration that produces a half-maximal response. High values mean a need for much substance, low ones an effect from little substance. As to B1, the EC50 in assay [1] was found to be 0.157 nM; in assay [2] it was 0.128 nM; in assay [3] it was 0.334 nM; in assay [4], 0.217 nM.
